Source: EP4748847A1, “PEPTIDE COMPLEX HAVING VEGFR -2 AGONIST ACTIVITY” (Peptidream Inc, priority 2023, dated 2025)
Like-named read-outs stand apart in the source and are kept apart here. *1 amine or outer side, *2 acyl side, *3 side chain or, on linkers, in order; H or OH if unused. Bridges are numbered along the chain shown (N, C = ends). Primed or numbered codes have the meaning given here. Where no end group is shown, it is not given here. [ ]: non-standard residue; d: D form. CO(CH2)2(OCH2CH2)17CO = O=C(CCOCCOCCOCCOCCOCCOCCOCCOCCOCCOCCOCCOCCOCCOCCOCCOCCOCCC(=O)[*:2])[*:1]; Met(O2) = CS(=O)(=O)CC[C@H](N)C(=O)O; hTyr = N[C@@H](CCc1ccc(O)cc1)C(=O)O; Hyp = O=C(O)[C@@H]1C[C@@H](O)CN1; hArg = N=C(N)NCCCC[C@H](N)C(=O)O; Chg = N[C@H](C(=O)O)C1CCCCC1; Tle = CC(C)(C)[C@H](N)C(=O)O; F4aao = not defined here; Ahp′ = not defined here; H4Py = not defined here; Atb = not defined here; F4C = not defined here; Yph = not defined here

B1: Peptide complex Dimer Structure No. 44 (peptide)
peptide: {CH2CO}-WW[Tle]DVKDDLYF[hTyr]DCG-NH2
modifications: thioether N-14; also: homodimer: Lys6 joined to Lys6 of second copy by cPEG17c (Linker Structure No. 4)
B2: Peptide complex Dimer Structure No. 26 (peptide)
peptide: {CH2CO}-WW[Tle]QVKDDLYF[hTyr]DCG-NH2
modifications: thioether N-14; not fully specified (residue 6); also: homodimer: Lys6 joined to Lys6 of second copy by cPEG17c (Linker Structure No. 4)
B3: Peptide complex Dimer Structure No. 55 (peptide)
peptide: {CH2CO}-WW[Tle]DVKDD[Atb]Y[F4G][hTyr]DCG-NH2
modifications: thioether N-14; reading uncertain; also: dimer: Lys6 joined to Lys6 of second copy by OCOPEG13OCO (Linker Structure No. 5)
B4: Peptide complex Dimer Structure No. 56 (peptide)
peptide: {CH2CO}-WW[hTyr]DVKDD[Atb]Y[F4G]VDCG-NH2
modifications: thioether N-14; reading uncertain; also: dimer: Lys6 joined to Lys6 of second copy by OCOPEG13OCO (Linker Structure No. 5)
B5: Peptide complex Dimer Structure No. 28 (peptide)
peptide: {CH2CO}-WW[Tle]D[Chg]KDDLYF[hTyr]DCG-NH2
modifications: thioether N-14; not fully specified (residue 6); also: homodimer: Lys6 joined to Lys6 of second copy by cPEG17c (Linker Structure No. 4)
B6: Peptide complex Dimer Structure No. 50 (peptide)
peptide: {CH2CO}-WWVDVKDDLYFVDCG-NH2
modifications: thioether N-14; also: homodimer: Lys6 joined to Lys6 of second copy by OCOPEG17OCO (Linker Structure No. 6)
B7: Peptide complex Dimer Structure No. 54 (peptide)
peptide: {CH2CO}-WW[Tle]DVKDD[Atb]Y[F4G][hTyr][Hyp]CG-NH2
modifications: thioether N-14; reading uncertain; also: dimer: Lys6 joined to Lys6 of second copy by OCOPEG13OCO (Linker Structure No. 5)
B8: Peptide complex Dimer Structure No. 40 (peptide)
peptide: {CH2CO}-WW[hTyr]DVKDDLY[F4G]VDCG-NH2
modifications: thioether N-14; also: homodimer: Lys6 joined to Lys6 of second copy by OCOPEG13OCO (Linker Structure No. 5)
B9: Peptide complex Dimer Structure No. 39 (peptide)
peptide: {CH2CO}-WWVDVKDDLY[Yph]V[hArg]CG-NH2
modifications: thioether N-14; reading uncertain; also: homodimer: Lys6 joined to Lys6 of second copy by OCOPEG13OCO (Linker Structure No. 5)
B10: Peptide complex Dimer Structure No. 37 (peptide)
peptide: {CH2CO}-WWVDVKGVNYF[hTyr]DCG-NH2
modifications: thioether N-14; also: homodimer: Lys6 joined to Lys6 of second copy by OCOPEG13OCO (Linker Structure No. 5)
B11: Peptide complex Dimer Structure No. 30 (peptide)
peptide: {CH2CO}-WW[Tle]DVKDDLY[F4C][hTyr]DCG-NH2
modifications: thioether N-14; not fully specified (residue 6); reading uncertain; also: homodimer: Lys6 joined to Lys6 of second copy by cPEG17c (Linker Structure No. 4)
B12: Peptide complex Dimer Structure No. 48 (peptide)
peptide: {CH2CO}-WW[Tle]DVKDD[Atb]YF[hTyr]DCG-NH2
modifications: thioether N-14; reading uncertain; also: homodimer: Lys6 joined to Lys6 of second copy by cPEG17c (Linker Structure No. 4)
B13: Peptide complex Dimer Structure No. 36 (peptide)
peptide: {CH2CO}-WW[Tle]DV[Ahp′]DDLYF[hTyr]DCG
modifications: thioether N-14; not fully specified (C-terminus); reading uncertain; also: dimer: Gly15 C-terminus joined to second copy by PEG12c-K-PEG12c (Linker Structure No. 1)
B14: Peptide complex Dimer Structure No. 3 (peptide)
peptide: {CH2CO}-WWVDVWDDLYFVDCG
modifications: thioether N-14; also: dimer joined at Gly15 C-termini by PEG12c-K-PEG12c
B15: Peptide complex Dimer Structure No. 34 (peptide)
peptide: {CH2CO}-WW[Tle]DVKDDLYF[hTyr]FCG-NH2
modifications: thioether N-14; also: homodimer: Lys6 joined to Lys6 of second copy by cPEG17c (Linker Structure No. 4)
B16: Peptide complex Dimer Structure No. 57 (peptide)
peptide: {CH2CO}-WW[hTyr]DVKDD[Atb]Y[F4G][hTyr]DCG-NH2
modifications: thioether N-14; reading uncertain; also: dimer: Lys6 joined to Lys6 of second copy by OCOPEG13OCO (Linker Structure No. 5)
B17: Peptide complex Dimer Structure No. 38 (peptide)
peptide: {CH2CO}-WWV[Met(O2)]VKDDLYF[hTyr]DCG-NH2
modifications: thioether N-14; also: homodimer: Lys6 joined to Lys6 of second copy by OCOPEG13OCO (Linker Structure No. 5)
B18: Peptide complex Dimer Structure No. 35 (peptide)
peptide: {CH2CO}-WW[Tle]DVKDDLYF[hTyr][F4aao]CG-NH2
modifications: thioether N-14; reading uncertain; also: homodimer: Lys6 joined to Lys6 of second copy by cPEG17c (Linker Structure No. 4)
B19: Peptide complex Dimer Structure No. 32 (peptide)
peptide: {CH2CO}-WW[Tle]DVK(CO(CH2)2(OCH2CH2)17CO)DDLYF[H4Py]DCG-NH2
modifications: thioether N-14; reading uncertain; also: dimer joined at Lys6 side chains by cPEG17c
B20: Peptide complex Dimer Structure No. 41 (peptide)
peptide: {CH2CO}-WWVDVKDDLY[F4G][hTyr][Hyp]CG-NH2
modifications: thioether N-14; also: homodimer: Lys6 joined to Lys6 of second copy by OCOPEG13OCO (Linker Structure No. 5)

Experiments:
[1] = molecular target: T1, VEGFR-2 (human, UniProt P35968 20-1356); test: cell-based or functional assay
[2] = molecular target: T1, VEGFR-2; test: cell-based or functional assay; remark: listed apart in the source

T1 sequence (P35968 20-1356): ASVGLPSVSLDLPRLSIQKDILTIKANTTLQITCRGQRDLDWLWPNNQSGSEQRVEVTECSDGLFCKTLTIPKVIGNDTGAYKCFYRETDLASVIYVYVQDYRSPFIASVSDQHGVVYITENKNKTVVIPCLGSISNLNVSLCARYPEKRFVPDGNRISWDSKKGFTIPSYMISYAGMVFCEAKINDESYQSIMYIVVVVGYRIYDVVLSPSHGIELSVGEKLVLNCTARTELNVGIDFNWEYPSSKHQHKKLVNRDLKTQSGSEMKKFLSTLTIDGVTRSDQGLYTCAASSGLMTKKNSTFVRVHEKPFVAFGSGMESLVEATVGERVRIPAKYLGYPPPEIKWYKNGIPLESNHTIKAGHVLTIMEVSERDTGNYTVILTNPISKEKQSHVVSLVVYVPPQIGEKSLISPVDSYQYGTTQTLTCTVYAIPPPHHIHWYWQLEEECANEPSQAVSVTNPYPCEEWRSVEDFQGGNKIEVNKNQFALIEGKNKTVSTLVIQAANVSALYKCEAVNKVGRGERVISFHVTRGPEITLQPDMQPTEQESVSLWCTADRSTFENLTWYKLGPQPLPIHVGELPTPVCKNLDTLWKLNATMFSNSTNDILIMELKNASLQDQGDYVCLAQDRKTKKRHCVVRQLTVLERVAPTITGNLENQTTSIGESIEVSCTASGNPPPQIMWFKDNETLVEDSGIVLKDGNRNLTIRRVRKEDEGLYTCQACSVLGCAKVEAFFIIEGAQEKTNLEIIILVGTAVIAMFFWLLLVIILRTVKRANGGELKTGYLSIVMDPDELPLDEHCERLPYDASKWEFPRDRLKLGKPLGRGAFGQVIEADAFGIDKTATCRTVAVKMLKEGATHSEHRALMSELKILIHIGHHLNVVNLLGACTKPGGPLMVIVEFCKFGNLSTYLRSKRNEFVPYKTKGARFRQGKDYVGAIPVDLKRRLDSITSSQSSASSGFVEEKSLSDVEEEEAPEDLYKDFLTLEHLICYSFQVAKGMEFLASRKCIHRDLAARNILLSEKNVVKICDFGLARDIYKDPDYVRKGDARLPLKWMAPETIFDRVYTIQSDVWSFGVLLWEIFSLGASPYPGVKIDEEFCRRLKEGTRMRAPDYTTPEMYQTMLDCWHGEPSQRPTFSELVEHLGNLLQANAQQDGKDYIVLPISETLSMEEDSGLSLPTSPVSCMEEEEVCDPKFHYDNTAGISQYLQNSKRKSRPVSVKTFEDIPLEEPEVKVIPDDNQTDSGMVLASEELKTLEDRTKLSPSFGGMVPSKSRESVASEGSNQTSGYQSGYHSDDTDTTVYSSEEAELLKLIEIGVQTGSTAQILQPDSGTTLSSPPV

Binder	pERK Assay Results (AlphaLISA p-Erk1/2, HUVEC) [1]	pERK Assay Results (AlphaLISA p-Erk1/2, HUVEC) [2] [% activity at 10 nM]
B1	≥ 50 % activity at 20 nM	
B2	≥ 50 % activity at 100 nM	
B3	≥ 50 % activity at 5 nM	
B4	≥ 50 % activity at 20 nM	
B5	≥ 50 % activity at 10 nM	
B6	≥ 50 % activity at 20 nM	
B7	≥ 50 % activity at 5 nM	
B8	≥ 50 % activity at 10 nM	
B9	≥ 50 % activity at 100 nM	
B10	≥ 50 % activity at 100 nM	
B11	≥ 50 % activity at 10 nM	
B12	≥ 50 % activity at 20 nM	
B13	≥ 50 % activity at 100 nM	
B14		≥ 50
B15	≥ 50 % activity at 10 nM	
B16	≥ 50 % activity at 20 nM	
B17	≥ 50 % activity at 100 nM	
B18	≥ 50 % activity at 10 nM	
B19	≥ 50 % activity at 10 nM	
B20	≥ 50 % activity at 10 nM	
